A protein production outcome set (Wang et al. 2014)

Assay: label from the status in PepcDB records
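Note: failed if final PepcDB status was selected cloned or expressed and not failed if soluble or beyond.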

Row | Sequence | protein production
1 | MTLDTAAGHPTMDFADRCPLPYTSPTHLQAVAYLHGIVAADPDRARVLELGCMSGANLLPFATAYPQAQAVGIDLDEEKIAQGQMWVQQYGLTNLQLQAMDLGSLLDSDLGKFDYIIVHGVFGLISGEARSALLAYCHRHLSAKGVVCFSYSTYPGGKTEEILQDALNLHASLAETPEQQQASARAMLSYLSLGMSADNPQRAAITTLVEEAEKLGDVSLALNYLQGLNQPCYLLDFNALIAQEGLSYVGEIEPHTEIASHYGEQVDSLLRAICPTGNKVLKQQYLDFNVGRKRRFSLLVATERAGKLESEIDISRLDKLSWAGSFRRVMLNKGLASNAHVTNAGIQISTDHELTQQILDVLGNAWPASVSFKQLIFNTHFPEKENDKQEHENNIRESLYALLKQGISSIHFCVGECAYRKSEFSALRALPNCGDIYPTFNYWYESFTLPSEALGLKIPMSLLEEQKEGSLALLDELHHKGLMIGSALAWQRYFQKRLELAKDVNDVIHSINPLIMYSSNASGGGLFKASDVIKVEKSRKEFVNDPIDAKFKGQLYDLLQKQKYDEARSLAEELTVKQPNNLQNWIALERINFVTGDKDAAIFSLAKVISMHSNAWLVYSELASLLHNTYNYWEAINLAYRVIRCDGNIAVAWNVVALVYLKFENMAGAEVCIEKAMKLLPNDAAILNAMAMVLDKKSDVESAIEYYRQAVSNAPEDLSLYSNLLFALLHNAKIPASEIFAEHLLYGDVVEKRNGALAPVRYLQNKDPDRVLRIGFVSGDLYSHPVSKFLSPVWNDIDHQHFSLYAYSTSHHHDDVTRMLEKNSTVWRNVASSSDTELFDLIKRDEIDILFDLSGHTGDNRLSMFAMKPAPIQISWIGYPGTTGLKAMDYYLVMNHAPYPEVLAHQFTEKLLYVLFDRQFEPVVNGPEVNDLPALTNGYLTFASFNRPTKINDTVLSAWGKILVQLPTSKMIIGALPSLQTRDLIRKKLESQGVQPEQLIFRERVNIMNYLAMHQEIDVLLDTFPYTGGTTTNYALWMGVPTLTLAGETYAARQGVVNLGQAGLNEFIAHSEADYIDKAISCNNRLDELNQIRHSLRKKMEYDIDTSDATAATYFEQALRTVWKAYCDGQPPKSYSIGH | failed
2 | MEDEPGSENEADTIVASPLAKWRIEFSKSFQNYLDRSAPNIVRRWLVTLVAAVIYIYRVYSVYGYFVISYGLATYILNLLIGFLSPKVDPELEALDPDSLPVDESDEYKPFVRRLPEFKFWYAATKAFVVAFVMTFFSFLDVPVFWPILLCYWLVLYSLTMKRLIVHMFKYRYFPFDVRKPVKLLKFLVNSVLTFLRLKKQIQIGHHTRRTVWTRVYLLDFLDIGLANIHRVYAQLHLQQQQNIVKDIAMRDYWRDSIRQFPRKYLFITYQRFDEKSFLVSANHPKSAMEATTRILSTSSALNRLLLLSKLNLKSDPRNINSTNQLLHNAVTRKSSISAARIRCSSLPANANLFRSLFFLTSTFRLENTAVHANPFRSEPNDGVAVWNRAPRIVNGGGNAAIFGGNEGKETTVVLLGWLGAKAKHLRRYVEWYNSRGINAVTFTVDVRDLLRLDLGRRLERRIAEFGNELVNWVSEKEDDGREKCLVFHSFSNTGWLVYGALLESFIGRQDLVERIKGCIIDSGGADPLDTKVCSLFHVTKSFKCYSMVSPLLQDLVLEVEMSILL | failed
3 | ENDVRVETTLHQNTRIYDVRGQLFFSSSERFAKAFDFQENVAHVIIDLTHSHIWDVTTVASLDHIVDKFQKNGIQVTVKGLNEASSIMIEQYGTHSKI | failed
4 | MYADYPYYADHYGGDIPEREYPSAERRAEAYIRKLTYVRGNIFAVENTAVKDAVCAVADVYYSCKKKQEAGTVKSESNDGYSVSYAVEQADGQTMEELIRKKAYEAASTYLLPTGWLSRKVGCCHADECDDYNL | failed
5 | SLQCIFLISDSGEVMLEKQLTGHRVDRSICAWFWDQYISQGDSFKALPVIASPTHYLFQIVRDGITFLACSQVEMPPLMAIEFLCRVADVLSEYLGGLNEDLIKDNFIIVYELLDEMIDNGFPLTTEPSILKEMIAPPNLVSKMLSVVTGNASNVSDTLPSGAGSCVPWRPTDPKYSSNEVYVDLVEEMDAIVNRDGELVKCEIYGEVQMNSQLTGFPDLTLSFANPSILEDMRFHPCVRYRPWESHQVLSFVPPDGEFKLMSYRVKKLKNTPVYVKPQITSDSGTCRISVLVGIRSDPGKTIESITLSFQLPHCVSSADLSSNHGTVTILSNKTCTWTIGRIPKDKTPCLSGTLALEPGLERLHVFPTFKLGFKIMGIALSGLRIEKLDLQTIPPRLYKGFRAQTRTGEFDVRL | failed
6 | MALRTLSTFPSLPRRHTTTRREPNLTVIYRNPTTSIVCKSIANSEPPVSLSERDGFAAAAPTPGERFLENQRAHEAQKVVKKEIKKEKKKKKEEIIARKVVDTSVSCCYGCGAPLQTSDVDSPGFVDLVTYELKKKHHQLRTMICGRCQLLSHGHMITAVGGNGGYPGGKQFVSADELREKLSHLRHEKALIVKLVDIVDFNGSFLARVRDLVGANPIILVITKIDLLPKGTDMNCIGDWVVEVTMRKKLNVLSVHLTSSKSLDGVSGVASEIQKEKKGRDVYILGAANVGKSAFINALLKTMAERDPVAAAAQKYKPIQSAVPGTTLGPIQINAFVGGEKLYDTPGVHLHHRQAAVVHSDDLPALAPQNRLRGQSFDISTLPTQSSSSPKGESLNGYTFFWGGLVRIDILKALPETCFTFYGPKALEIHAVPTKTATAFYEAKLGVLLTPPSGKNQMQEWKGLQSHRLLQIEINDAKRPASDVAISGLGWISIEPIRKTRGTEPRDLNEAEHEIHICVSVPKPVEVFLRPTLPIGTSGTEWYQYRELTDKEEEVRPKWYF | failed
7 | MKKKLKLTSLLGLSLLIMTACATNGVTSDITAESADFWSKLVYFFAEIIRFLSFDISIGVGIILFTVLIRTVLLPVFQVQMVASRKMQEAQPRIKALREQYPGRDMESRTKLEQEMRKVFKEMGVRQSDSLWPILIQMPVILALFQALSRVDFLKTGHFLWINLGSVDTTLVLPILAAVFTFLSTWLSNKALSERNGATTAMMYGIPVLIFIFAVYAPGGVALYWTVSNAYQVLQTYFLNNPFKIIAEREAVVQAQKDLENRKRKAKKKAQKTK | failed
8 | MEIHSSAAAEVFPVCRSLLGKLPAHSHNRSVAPTVCDYYPQIMKTYNSKMTTQHSSDIRNSQNISASFVTPHDAPVTSRKYVPKFNSNNHRIKTAAAFEKGSDIYHAVRPNYPNSVIELLNLSPNSRVLDIGCGTGKLTEQIAQQTSSVYALDPSKDMLDSFRSTLDIPSWQATAEQTAVSDSRFSTLTCAQTWHWVEPLAASAELDRISTDDAQLLLVWNTLDVSVPWVHRLSRIMHSGDTLAEGFIPHVAQPWELVSVLRGKHAQELYPDQIHTLAHTRSYWLRASEKTREKLTHNLSWYLTDHLELPSTSLVEIPYRFDAFLYKKALVKTQ | failed
9 | MPDYGHDLLFGAVLTPDAQNPRAVLESARLADRSGLDLVSVPDHPYRPDFLDAWTLLSVIAAHTERVRVFPNVANLPLRPPAGLARAAAALDVLSGGRVELGLGAGGYWDAIAGEGQPRRTPGEAVEALAEAIDVIRALWASGGAGATVDGTHYRLDGARPGPPAAHPLGIWVGALGPRMLRLIGRTADGWLPSATRVPPAELAVGQRIVDEAAIAAGRDPRAVRRLYNLP | failed
10 | KITRLTTYRLPPRWMFLKVETDEGVTGWGEPVIEGRARTVEAAVHELSDYLIGQDPSRINDLWQTMYRAGFYRGGPILMSAIAGIDQALWDIKGKVLGVPVYELLGGLVRDKMRTYSWVGGDRPADVIAGMKALQAGGFDHFKLNGCEEMGIIDTSRAVDAAVARVAEIRSAFGNTVEFGLDFHGRVSAPMAKVLIKELEPYRPLFIEEPVLAEQAETYARLAAHTHLPIAAGERMFSRFDFKRVLEAGGVSILQPDLSHAGGITECVKIAAMAEAYDVALAPHCPLGPIALAACLHVDFVSWNATLQEQSMGIHYNKGAELLDYVRNKADFALEGGYIRPPRLPGLGVDIDEALVIERSKEAPDWRNPVWRHADGSVAEW | not failed
11 | MITVVGGTFSKLHKGHKALLNTAIDTGNEVVIGLTSDEYVKKNKVYPAIPYSVRYRTLYNYMIKRTNKFRIRQIDDRNGNAPYEKDYEVIVVSPETYPRSLKINEIRISNGLPPLKIIRVPYVLAQDLFPISSTRIINGEID | not failed
12 | MRPCCHWRPGPSGCHCCAGCGLAAEARRARERRGEAVIGLCGALAGEVRAGRQPGEALLHAAGDSGGLGDAQAAVLAAARFGGDVPGALADAAGQPGAEGLLGLGACWRVAVDRGAGLAAGLDRLEAALRAERDQRAELRAQLAGARSTAVMLAALPVLGLLLGTALGADPLHVVLHTGAGLACLLAGAVLEGAGLWWALRIVRGAEAA | failed
13 | MRRVFGAKKNTEPPPSIQDASDRINKRGDSVEDKIKKLDVELCKYKEQLKKTRPGPAQEAVKARAMRVLKQKKMYEGQRDMLYNQTFNLDQVSFAAEGLKDAQQTMTALKSANKELKGMMKTVKIQDIDNLQDEMMDLMDVSSEIQESLGRSYNIPDGLDEDDLMGELDALEADMGNETEADGMPSYLQPDTETDYDSELNLPAAPTGHNGAPHGRAQVNF | failed
14 | MAMEKPVLWYIADPMCSWCWGFAPVIENIRQEYSAFLTVKIMPGGLRPGTNTPLLPEKRAQILHHWHSVHITTGQPFTFENALPEGFIYDTEPACRGVVSVSLIEPEKVFPFFAAIQRAFYVGQEDVAQLAILKKLAVDLGIPESRFTPVFQSDEAKQRTLAGFQRVAQWGISGFPALVVESGTDRYLITTGYRPIEALRQLLDTWLQQHGV | not failed
15 | MVHASVDIEVQFAIAVVKTLILVLGGIVTYLAYSAYQRTGDETLFQLSVGLALVGVGVLLGGFTFELLDVSLGVGVLIESLFVLAGLSVIAYSLKK | failed
16 | MIGITQAEAVLTIELQRPERRNALNSQLVEELTQAIRKAGDGSARAIVLTGQGTAFCAGADLSGDAFAADYPDRLIELHKAMDASPMPVVGAINGPAIGAGLQLAMQCDLRVVAPDAFFQFPTSKYGLALDNWSIRRLSSLVGHGRARAMLLSAEKLTAEIALHTGMANRIGTLADAQAWAAEIARLAPLAIQHAKRVLNDDGAIEEAWPAHKELFDKAWGSQDVIEAQVARMEKRPPKFQGA | not failed
17 | MHKTAFIWTDEYYNYSFPDYHPFKSLRESMTKRLLEERGAFHFITLVEPKSIPEEALQLVHSKEYIEFVKYKSKEGQGYLDDGDTPAFKGIYEAALIRVSGSVKALELIKSGEFNHTINIGGGFHHAKRNRAAGFCVFNDVALISKLGESFFSRIAIVDIDGHHADGTQELLIDDNNILKISLHMFHPNFFPGTGDVNEIGLGKGEGYTINIPLPPGTGDDGYLLAFDEIVVPAIERYKPELIILVAGGDSHFNDPLVELKLSTHGYLDVVTKIHRLVHEYSNGRLIMLGGGGYNYDATARIWTISIAEIAGIYDLEYETLHDSFSTKSSQFVMEKIRNTISLIKKIHSLN | failed
18 | MNVYDLIAEHYSGLFPLETEKLEFIQHLCPLPGRLCDAGCATGELVMGLYQKGYDICGLDLNEKMIGIAEKKASCIRKTGELMFYHADIADIMQFGKFKGVLCFGNTLPHLRDEEALRRFFGSVYRSLEEHGIFIVEVLNYDRILDDKKMDFKDKETKDFIFKRNYDFLPGGNIRFTIEFTDKQRSTVGSDFTVLHPLKRQMLLALFKQTGFKSVSAYSDYSFTESRAEDYAVVYTANK | failed
19 | MIYEGAVFRPPSEASSLILQVSLGCRHNQCTFCSMYKGKSFRIRSIEEIMDMIDAGSKAYPHMERIFLADGDALAVETDVLSNVLETLYQRFPRLKRVGIYGGPKDILEKSPAELARLKEQGLSIVYLGVESGSGLILNLIRKGVTPEEMINAGQKVVASGLKLSCTIILGLGGRERSPEHAVETGKVISAINPHYLGALTLMLAPDAPLTQKIKSGEFTPLNKWESLIELELMVQGLNLKDCLFRSNHASNYLPLKAHLPHDKATLLSTLKEVIEENREEVLRPEYWRGL | failed
20 | MTTTIHMLTIIILCGIVTWLTRIIPFVMISKVHLSERVVKWLSFIPITLFTALIIDGVLVQQEGVMGYTINMPFLITMIPTIVVAIVSRSLTITILSGIIIMALLRWVF | failed
